The subject of assay [1] is DEVD-cleaving proteases in cell extracts treated with caspase-8. Nature of the assay: Cell-free caspase activation induced by active caspase-8 in HEK 293 cytosolic extracts. The class given is biochemical, human. To be noted: recombinant protein. The protocol:
(§1) Caspase activity was assayed by release of 7-amino-4-trifluoromethyl-coumarin (AFC) from Ac-DEVD or Ac-LEHD-containing synthetic peptides (Calbiochem) using continuous-reading instuments as described (Quan, L. T. et al., (1995) J. Biol. Chem. 270:10377-10379).
(§2) Cytosolic extracts were prepared as described (Deveraux, Q., Takahashi, R., Salvesen, G. S. & Reed, J. C. (1997) Nature 388, 300-303) using human embryonic kidney (HEK) 293 cells. Cells were washed with ice-cold buffer A (20 mM HEPES pH 7.5, 10 mM KCl, 1.5 mM MgCl2, 1 mM EDTA and 1 mM DTT), suspended in 1 volume of buffer A, incubated on ice for 20 mins, and then disrupted by 15 passages through a 26-gauge needle. Cell extracts were purified by centrifugation at 15000 g for 12 mins and supernatants were stored at −80 ° C. For initiating caspase activation, either 100 nM of purified recombinant caspase-8 or 1 μM horse heart cytochrome c (Sigma) together with 1 mM dATP was added to extracts (Deveraux, Q. L., et al., (1998) EMBO J. 17, 2215-2223).
To further explore the mechanisms by which SfIAP and CpIAP inhibit mammalian apoptosis, a cell-free system in which exogenously added active caspase-8 or cyto c induces activation of caspase-3 and similar proteases, as measured by hydrolysis of Ac-DEVD-AFC (Quan, L. T. et al., (1995) J. Biol. Chem. 270, 10377-10379) was used. […]

Assay [2] has as its system caspase-3 and similar DEVD-cleaving proteases in cell extracts treated with cyto c. Nature of the assay: Cell-free caspase activation induced by cyto c in HEK 293 cytosolic extracts. The class given is biochemical, human. To be noted: for suppression of pro-caspase-3 processing (immunoblot): cyto c-treated extracts; for effect on hydrolysis of Ac-DEVD-AFC (caspase activity): recombinant protein, cell extracts treated with cyto c. The method, then:
as §1, §2
To further explore the mechanisms by which SfIAP and CpIAP inhibit mammalian apoptosis, a cell-free system in which exogenously added active caspase-8 or cyto c induces activation of caspase-3 and similar proteases, as measured by hydrolysis of Ac-DEVD-AFC (Quan, L. T. et al., (1995) J. Biol. Chem. 270, 10377-10379) was used. Caspase-8 and cyto c trigger the same apoptosis pathways in extracts which are activated by Fas and Bax in intact cells.
For orientation: A western blot detects proteins with antibodies after separation by electrophoresis.

The subject of assay [3] is apoptosis induced by AcMNPV p35 mutant virus in Sf-21 cells. Nature of the assay: Rescue of AcMNPV p35-deleted virus in Sf-21 cells (occlusion body formation). The class given is cell-based, Spodoptera frugiperda. The note with it: plasmid co-transfected with AcMNPV p35 mutant viral DNA into Sf-21 cells; observed 72 hrs post-transfection. The protocol:
Insect Sf-21 cells were maintained at 27° C. in Excell 401 media (JHR Bioscience) supplemented with 2.5% fetal bovine serum. vP35del, containing a deletion in the p35 gene, was propagated in TN-368 cells (Clem, R. J., et al., (1991) Science 254, 1388-1390). Plasmids encoding full-length or deletion mutants of SfIAP (1 μg) were co-transfected with 1 μg vP35del viral DNA into Sf-21 cells using Lipofectin from Gibco. Occlusion body formation was observed under light microscopy 3 days post-transfection.
SfIAP was tested to see if it also complements. p35-deficiency, preventing apoptosis by this mutant virus, thereby allowing its replication in insect cells. Plasmids containing full-length SfIAP or fragments of SfIAP comprising the two BIRs or the RING domain were co-transfected with AcMNPV p35 mutant viral DNA into Sf-21 cells. Cells were observed 72 hrs post-transfection. […] Thus, analogous to CpIAP and OpIAP, BIR and RING domains of SfIAP are required in combination for inhibition of apoptosis induced by AcMNPV p35 mutant virus.

“Also recorded” adds a separate entry of the source.

B1: SfIAP: cellular IAP cloned from Spodoptera frugiperda, protein of 377 amino acids (SEQ ID NO:3); GST-fusion when recombinant (protein, listed as Spodoptera frugiperda)
chain: MWSCSLPCWNTKKSGLQMDITKVASNGSSSTLTLFKSGSLEAKIRPLAPLMLPTPSYDSNAGSPSLSPSTPCSSSSFSIDKTDNHDTFGFSADTVDMRKEDERMKTFEKWPVSFLSGEQLARNGFYYLGRRDEARCAFCKVEIMRWVEGDDPAKDHQRWAPQCPFVRKLNGTAAADTGSSGQDECGARAAPSGTSPPRMAGPVHPRYASEAARLRSFKDWPRCMRQKPEELAEAGFFYTGQGDKTKCFYCDGGLKDWENHDVPWEQHARWFDRCAYVQLVKGREYVQKVISEACEVSASEAERDVAPARTAEPSPPAEAPENSVDDSKLCKICYAEERNVCFVPCGHVVACAKCALAADKCPMCRRTFQNAVRLYFS
modifications: GST fusion when recombinant; fall armyworm inhibitor of apoptosis protein (SfIAP)
Consider B1, for which the “effect on DEVD-cleaving proteases” value in assay [1] was “no effect on DEVD-cleaving proteases”. Moreover, in assay [2], the “suppression of pro-caspase-3 processing (immunoblot)” value is reported as “suppressed the processing of pro-caspase-3 in cyto c-treated” and the “effect on hydrolysis of Ac-DEVD-AFC (caspase activity)” value is on record as “completely blocked the hydrolysis of Ac-DEVD-AFC; also recorded: able to inhibit cyto c-induced activation of DEVD-cleaving caspases”. In addition, the “complementation of p35 deficiency (rescue of mutant virus replication, occlusion body formation)” value in assay [3] is reported as “complemented p35 deficiency”.

B2: CpIAP: baculoviral (CpGV) inhibitor of apoptosis protein; complete ORF expressed myc-tagged or as GST-fusion (protein)
chain: MSDLRLEEVRLNTFEKWPVSFLSPETMAKNGFYYLGRSDEVRCAFCKVEIMRWKEGEDPAADHKKWAPQCPFVKGIDVCGSIVTTNNIQNTTTHDTIIGPAHPKYAHEAARVKSFHNWPRCMKQRPEQMADAGFFYTGYGDNTKCFYCDGGLKDWEPEDVPWEQHVRWFDRCAYVQLVKGRDYVQKVITEACVLPGENTTVSTAAPVSEPIPETKIEKEPQVEDSKLCKICYVEECIVCFVPCGHVVACAKCALSVDKCPMCRKIVTSVLKVYFS
modifications: left off: a dimerising Fc or GST
notes: complete ORF expressed myc-tagged or as GST-fusion
Turning to B2, the “effect on DEVD-cleaving proteases” value in assay [1] is “no effect on DEVD-cleaving proteases”. In assay [2], the “suppression of pro-caspase-3 processing (immunoblot)” value is given as “suppressed the processing of pro-caspase-3 in cyto c-treated” and the “effect on hydrolysis of Ac-DEVD-AFC (caspase activity)” value is listed as “completely blocked the hydrolysis of Ac-DEVD-AFC”.

(Values after patent publication US6570069B1, “Nucleic acids encoding plant inhibitors of apoptosis and transgenic cells and plants expressing them” (priority 2000, dated 2003).)
